Our source for the Kd, koff and kon values is patent US20160033523A1 (NOVOZYMES BIOPHARMA DK A S, published 2016).

As usually defined, the Kd is the free concentration of one partner at which half of the binding sites on the other are occupied at equilibrium, for simple one-to-one binding. For orientation: koff means a measure of how fast the partners let go of each other. What is called kon is the second-order rate constant of association.

For assay [1], the target named is T1, Soluble rat FcRn, GST-tagged, with human beta2-microglobulin (rat; Schistosoma japonicum; human, UniProt P08515 1-218 = GST).
T1 construct: also called srFcRn
Description: SPR, albumin over immobilized GST-FcRn, pH 6.0, 1:1 model. The protocol:
(§1) SPR experiments were carried out using a Biacore 3000 instrument (GE Healthcare). Flow cells of CM5 sensor chips were coupled with soluble FcRn from one of the following species, human (shFcRn), rat (srFcRn), mouse (smFcRn), rhesus monkey (srmFcRn), dog (dFcRn) or pig (pFcRn) (˜900-2500 resonance units (RU)) using GE Healthcare amine coupling chemistry as per the manufacturer's instructions. The coupling was performed by injecting 2 or 10 μg/ml FcRn in 10 mM sodium acetate pH 5.0 (GE healthcare). Phosphate buffer (67 mM phosphate buffer, 0.15 M NaCl, 0.005% Tween 20) at pH 6.0) was used as running buffer and dilution buffer. Regeneration of the surfaces were done using injections of HBS-EP buffer (0.01 M HEPES, 0.15 M NaCl, 3 mM EDTA, 0.005% surfactant P20) at pH 7.4 (GE Healthcare). For determination of binding kinetics, serial dilutions of albumin (10-0.3 μM) were injected over immobilized receptors at a constant flow rate (50 μl/min) at 25° C. In all experiments, data were zero adjusted and the reference cell subtracted.
For orientation: In SPR one partner is held on a chip, and binding of the other changes the refractive index at the surface.

Assay [2] concerns the target T2, Soluble mouse FcRn, GST-tagged, with human beta2-microglobulin (mouse; Schistosoma japonicum; human, UniProt P08515 1-218 = GST).
T2 construct: also called smFcRn
The assay is described as above. The protocol: as §1

Assay [3] addresses T3, Soluble rhesus monkey FcRn, GST-tagged, with human beta2-microglobulin (rhesus monkey; Schistosoma japonicum; …, UniProt P08515 1-218 = GST).
T3 construct: also called srmFcRn; soluble rhesus macaque FcRn
The assay is described as above. The protocol:
as §1

Assay [4] has as its target T4, Soluble dog FcRn, GST-tagged, with human beta2-microglobulin (dog; Schistosoma japonicum; human, UniProt P08515 1-218 = GST).
T4 construct: also called dFcRn
The description is as above. The protocol: as §1

Assay [5] addresses T5, Soluble pig FcRn, GST-tagged, with human beta2-microglobulin (Example 2) (pig; Schistosoma japonicum; human, UniProt P08515 1-218 = GST).
T5 construct: also called pFcRn; spFcRn
Described as above. As to the method: as §1

Assay [6] concerns the target T1, Soluble rat FcRn, GST-tagged, with …. Description: SPR, albumin over immobilized GST-FcRn, pH 6.0, steady state. As to the method: as §1
Assay [7] has as its target T2, Soluble mouse FcRn, GST-tagged, with …. Described as above. The protocol:
as §1

For assay [8], the target named is T6, Wild type cynomolgus macaque serum albumin (cynomolgus macaque, UniProt A2V9Z4 24-608).
T6 construct: also called CSA; native cyno albumin
T6 sequence (A2V9Z4 24-608): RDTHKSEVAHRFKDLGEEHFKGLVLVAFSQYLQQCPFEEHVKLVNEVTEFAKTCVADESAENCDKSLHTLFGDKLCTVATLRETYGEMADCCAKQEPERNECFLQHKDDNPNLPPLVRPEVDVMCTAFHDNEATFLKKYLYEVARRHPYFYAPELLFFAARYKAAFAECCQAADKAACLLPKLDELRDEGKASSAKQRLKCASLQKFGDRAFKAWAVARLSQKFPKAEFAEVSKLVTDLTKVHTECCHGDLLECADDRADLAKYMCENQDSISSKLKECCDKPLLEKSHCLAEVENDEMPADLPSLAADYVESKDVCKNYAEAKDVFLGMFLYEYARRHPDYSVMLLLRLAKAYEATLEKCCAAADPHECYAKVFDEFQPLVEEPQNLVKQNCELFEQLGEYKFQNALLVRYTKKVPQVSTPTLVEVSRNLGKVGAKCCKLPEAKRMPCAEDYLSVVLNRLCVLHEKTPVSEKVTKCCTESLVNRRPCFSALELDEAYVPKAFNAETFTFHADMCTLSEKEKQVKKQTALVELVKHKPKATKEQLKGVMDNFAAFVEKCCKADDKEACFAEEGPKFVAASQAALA
The assay can be described thus: SPR, albumin over immobilized His-FcRn, pH 5.5, 1:1 Langmuir. The protocol: as §1
The SPR assay was conducted with the following variations to the assay described in the Materials and Method section:
The soluble FcRn receptors were synthesized by GeneArt and expressed in HEK cells. The soluble FcRn contained a HIS-tag on the C-terminal of the Beta-chain instead of a GST on the heavy chain and the beta-chain used was the native beta-chain of the animal (see Materials and Method section for the corresponding sequences). The soluble FcRn was purified by a HIS trap column followed by an additional purification using an IgG column. The soluble FcRn receptor was diluted to 20 μg/mL. The phosphate buffer used as running buffer in the SPR assay was at pH 5.5 instead of pH 6.0. […] 1:1 Langmuir or Steady state model was used.

B1: Wild type rat serum albumin (ligand)
chain: EAHKSEIAHRFKDLGEQHFKGLVLIAFSQYLQKCPYEEHIKLVQEVTDFAKTCVADENAENCDKSIHTLFGDKLCAIPKLRDNYGELADCCAKQEPERNECFLQHKDDNPNLPPFQRPEAEAMCTSFQENPTSFLGHYLHEVARRHPYFYAPELLYYAEKYNEVLTQCCTESDKAACLTPKLDAVKEKALVAAVRQRMKCSSMQRFGERAFKAWAVARMSQRFPNAEFAEITKLATDVTKINKECCHGDLLECADDRAELAKYMCENQATISSKLQACCDKPVLQKSQCLAEIEHDNIPADLPSIAADFVEDKEVCKNYAEAKDVFLGTFLYEYSRRHPDYSVSLLLRLAKKYEATLEKCCAEGDPPACYGTVLAEFQPLVEEPKNLVKTNCELYEKLGEYGFQNAVLVRYTQKAPQVSTPTLVEAARNLGRVGTKCCTLPEAQRLPCVEDYLSAILNRLCVLHEKTPVSEKVTKCCSGSLVERRPCFSALTVDETYVPKEFKAETFTFHSDICTLPDKEKQIKKQTALAELVKHKPKATEDQLKTVMGDFAQFVDKCCKAADKDNCFATEGPNLVARSKEALA
notes: also called RSA; RSA Wt
For the molecule B1, the Kd in assay [1] is 3.2 µM; in assay [2], 2.6 µM; in assay [3], 2.2 µM; in assay [4], 5.8 µM; in assay [5] it was 6.4 µM; in assay [6], 4.1 µM. The molecule also returned a Kd in assay [7] of 2.6 µM. Besides, the koff in assay [1] stood at 0.026 s⁻¹; in assay [2], 0.0341 s⁻¹; in assay [3], 0.0101 s⁻¹; in assay [4] it was 0.048 s⁻¹; in assay [5], 0.071 s⁻¹. For the same molecule, the kon turned out to be 7600 M⁻¹ s⁻¹ in assay [1]; 13000 M⁻¹ s⁻¹ in assay [2]; 4500 M⁻¹ s⁻¹ in assay [3]; 8300 M⁻¹ s⁻¹ in assay [4]; 11000 M⁻¹ s⁻¹ in assay [5].

B2: Soluble cynomolgus macaque FcRn with cynomolgus beta2-microglobulin, HIS-tagged (receptor)
chain: AESHLSLLYHLTAVSSPAPGTPAFWVSGWLGPQQYLSYDSLRGQAEPCGAWVWENQVSWYWEKETTDLRIKEKLFLEAFKALGGKGPYTLQGLLGCELSPDNTSVPTAKFALNGEEFMNFDLKQGTWGGDWPEALAISQRWQQQDKAANKELTFLLFSCPHRLREHLERGRGNLEWKEPPSMRLKARPGNPGFSVLTCSAFSFYPPELQLRFLRNGMAAGTGQGDFGPNSDGSFHASSSLTVKSGDEHHYCCIVQHAGLAQPLRVELETPAKSS
b2m: IQRTPKIQVYSRHPPENGKPNFLNCYVSGFHPSDIEVDLLKNGEKMGKVEHSDLSFSKDWSFYLLYYTEFTPNEKDEYACRVNHVTLSGPRTVKWDRDM
notes: Synthesized by GeneArt, expressed in HEK cells; also called CynoFcRn; Cyno FcRn; not shown: HIS-tag on the C-terminal of the beta-chain
In turn, B2 showed a Kd in assay [8] of 35 µM.
